Results on one protein are retold here after PMC3174154, “Protein-Protein Interactions in Crystals of the Human Receptor-Type Protein Tyrosine Phosphatase ICA512 Ectodomain” (PLoS ONE, 2011).

Data set [1] deals with the molecule itself. Kind of data set: SEC; Superose 12, 20°C, 20 mM sodium phosphate, 150 mM NaCl, pH 7.0; each variant injected at 500 µM in 100 µl, alone or preincubated and injected together. (In general: In gel filtration, larger molecules generally elute earlier.)
Data set [2] concerns the molecule itself. Put plainly: SEC; Rs against protein concentration in the eluting peak; monomer-dimer equilibrium fitted (dimer to monomers); the text names size exclusion chromatography and light scattering.

B1: mature ectodomain of ICA512 (ME ICA512), wild type, residues 470 to 558 (domain or fragment, human, UniProt Q16849 470-558, looked up)
chain: EYGYIVTDQKPLSLAAGVKLLEILAEHVHMSSGSFINISVVGPALTFRIRHNEQNLSLADVTQQAGLVKSELEAQTGLQILQTGVGQRE
notes: the results say 470 to 556; The methods give 470-558, the results 470-556; also called wild-type ME ICA512; wild type variant
Take B1: the stoichiometry N – broadly, a count of units in the complex or per binding partner – in data set [1] stood at 2. Besides, the affinity in data set [2], expressed as Kd, was 800 nM.
